From IntAct's records for PubMed 24819706

B1: Transcriptional activator GLI3 (Homo sapiens), P10071 (parent)
chain: MEAQSHSSTTTEKKKVENSIVKCSTRTDVSEKAVASSTTSNEDESPGQTYHRERRNAITMQPQNVQGLSKVSEEPSTSSDERASLIKKEIHGSLPHVAEPSVPYRGTVFAMDPRNGYMEPHYHPPHLFPAFHPPVPIDARHHEGRYHYDPSPIPPLHMTSALSSSPTYPDLPFIRISPHRNPTAASESPFSPPHPYINPYMDYIRSLHSSPSLSMISATRGLSPTDAPHAGVSPAEYYHQMALLTGQRSPYADIIPSAATAGTGAIHMEYLHAMDSTRFSSPRLSARPSRKRTLSISPLSDHSFDLQTMIRTSPNSLVTILNNSRSSSSASGSYGHLSASAISPALSFTYSSAPVSLHMHQQILSRQQSLGSAFGHSPPLIHPAPTFPTQRPIPGIPTVLNPVQVSSGPSESSQNKPTSESAVSSTGDPMHNKRSKIKPDEDLPSPGARGQQEQPEGTTLVKEEGDKDESKQEPEVIYETNCHWEGCAREFDTQEQLVHHINNDHIHGEKKEFVCRWLDCSREQKPFKAQYMLVVHMRRHTGEKPHKCTFEGCTKAYSRLENLKTHLRSHTGEKPYVCEHEGCNKAFSNASDRAKHQNRTHSNEKPYVCKIPGCTKRYTDPSSLRKHVKTVHGPEAHVTKKQRGDIHPRPPPPRDSGSHSQSRSPGRPTQGALGEQQDLSNTTSKREECLQVKTVKAEKPMTSQPSPGGQSSCSSQQSPISNYSNSGLELPLTDGGSIGDLSAIDETPIMDSTISTATTALALQARRNPAGTKWMEHVKLERLKQVNGMFPRLNPILPPKAPAVSPLIGNGTQSNNTCSLGGPMTLLPGRSDLSGVDVTMLNMLNRRDSSASTISSAYLSSRRSSGISPCFSSRRSSEASQAEGRPQNVSVADSYDPISTDASRRSSEASQSDGLPSLLSLTPAQQYRLKAKYAAATGGPPPTPLPNMERMSLKTRLALLGDALEPGVALPPVHAPRRCSDGGAHGYGRRHLQPHDAPGHGVRRASDPVRTGSEGLALPRVPRFSSLSSCNPPAMATSAEKRSLVLQNYTRPEGGQSRNFHSSPCPPSITENVTLESLTMDADANLNDEDFLPDDVVQYLNSQNQAGYEQHFPSALPDDSKVPHGPGDFDAPGLPDSHAGQQFHALEQPCPEGSKTDLPIQWNEVSSGSADLSSSKLKCGPRPAVPQTRAFGFCNGMVVHPQNPLRSGPAGGYQTLGENSNPYGGPEHLMLHNSPGSGTSGNAFHEQPCKAPQYGNCLNRQPVAPGALDGACGAGIQASKLKSTPMQGSGGQLNFGLPVAPNESAGSMVNGMQNQDPVGQGYLAHQLLGDSMQHPGAGRPGQQMLGQISATSHINIYQGPESCLPGAHGMGSQPSSLAVVRGYQPCASFGGSRRQAMPRDSLALQSGQLSDTSQTCRVNGIKMEMKGQPHPLCSNLQNYSGQFYDQTVGFSQQDTKAGSFSISDASCLLQGTSAKNSELLSPGANQVTSTVDSLDSHDLEGVQIDFDAIIDDGDHSSLMSGALSPSIIQNLSHSSSRLTTPRASLPFPALSMSTTNMAIGDMSSLLTSLAEESKFLAVMQ
partner: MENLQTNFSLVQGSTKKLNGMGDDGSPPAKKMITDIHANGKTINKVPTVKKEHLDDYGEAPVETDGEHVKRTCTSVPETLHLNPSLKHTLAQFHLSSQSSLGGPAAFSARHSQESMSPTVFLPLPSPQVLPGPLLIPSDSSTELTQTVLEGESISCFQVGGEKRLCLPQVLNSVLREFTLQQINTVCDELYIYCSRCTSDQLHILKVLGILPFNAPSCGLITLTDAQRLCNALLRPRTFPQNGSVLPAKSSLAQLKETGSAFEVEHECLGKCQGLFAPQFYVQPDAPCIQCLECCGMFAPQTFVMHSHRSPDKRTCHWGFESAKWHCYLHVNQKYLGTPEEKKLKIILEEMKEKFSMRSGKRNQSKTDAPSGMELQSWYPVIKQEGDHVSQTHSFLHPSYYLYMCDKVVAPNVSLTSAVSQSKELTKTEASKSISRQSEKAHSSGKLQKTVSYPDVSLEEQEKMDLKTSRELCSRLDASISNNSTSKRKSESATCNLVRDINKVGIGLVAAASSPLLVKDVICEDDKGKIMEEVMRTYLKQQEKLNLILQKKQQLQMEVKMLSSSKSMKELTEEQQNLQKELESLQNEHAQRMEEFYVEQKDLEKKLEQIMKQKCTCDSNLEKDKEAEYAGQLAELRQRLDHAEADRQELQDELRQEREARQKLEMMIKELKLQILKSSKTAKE

Variants of: B1
Details: with skil_human SKIL

Variant | effect of a mutation on the interaction
M111T | decreasing interaction strength
